What all share (assay): pull-down
The target of experiment [1] is GST-5MP1-7A (7 alanine substitutions in AA-box 2) (human) (UniProt Q9Y6E2).
Experiment [2] deals with GST-fused human eIF2β (GST-eIF2β) (human) (UniProt P20042).
The target in experiment [3] is human eIF2 purified from HeLa cells (human, UniProt P05198 1-315; P20042 1-333; P41091 1-472).

Some results are limits rather than exact numbers.

human eIF2 purified from HeLa cells (human, UniProt P05198 1-315; P20042 1-333; P41091 1-472), sequence (P05198 whole entry, chain 1 of 3): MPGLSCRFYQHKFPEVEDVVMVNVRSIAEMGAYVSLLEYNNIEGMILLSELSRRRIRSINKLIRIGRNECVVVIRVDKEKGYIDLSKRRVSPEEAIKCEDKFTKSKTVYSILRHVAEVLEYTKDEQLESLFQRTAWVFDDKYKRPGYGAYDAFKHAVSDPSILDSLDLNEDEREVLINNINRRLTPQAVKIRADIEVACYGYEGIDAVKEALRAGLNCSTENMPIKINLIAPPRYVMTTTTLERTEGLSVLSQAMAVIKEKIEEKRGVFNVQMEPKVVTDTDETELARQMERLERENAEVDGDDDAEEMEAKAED
human eIF2 purified from HeLa cells (human, UniProt P05198 1-315; P20042 1-333; P41091 1-472), sequence (P20042 whole entry, chain 2 of 3): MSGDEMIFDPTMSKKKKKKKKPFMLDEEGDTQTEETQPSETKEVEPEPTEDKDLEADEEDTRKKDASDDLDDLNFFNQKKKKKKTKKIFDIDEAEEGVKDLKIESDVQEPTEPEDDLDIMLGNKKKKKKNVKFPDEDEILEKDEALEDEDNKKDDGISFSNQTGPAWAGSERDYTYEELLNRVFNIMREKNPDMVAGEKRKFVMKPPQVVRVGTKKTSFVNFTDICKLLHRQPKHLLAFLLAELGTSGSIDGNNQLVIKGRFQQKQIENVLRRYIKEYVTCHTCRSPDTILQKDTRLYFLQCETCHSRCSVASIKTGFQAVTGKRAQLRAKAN
human eIF2 purified from HeLa cells (human, UniProt P05198 1-315; P20042 1-333; P41091 1-472), sequence (P41091 whole entry, chain 3 of 3): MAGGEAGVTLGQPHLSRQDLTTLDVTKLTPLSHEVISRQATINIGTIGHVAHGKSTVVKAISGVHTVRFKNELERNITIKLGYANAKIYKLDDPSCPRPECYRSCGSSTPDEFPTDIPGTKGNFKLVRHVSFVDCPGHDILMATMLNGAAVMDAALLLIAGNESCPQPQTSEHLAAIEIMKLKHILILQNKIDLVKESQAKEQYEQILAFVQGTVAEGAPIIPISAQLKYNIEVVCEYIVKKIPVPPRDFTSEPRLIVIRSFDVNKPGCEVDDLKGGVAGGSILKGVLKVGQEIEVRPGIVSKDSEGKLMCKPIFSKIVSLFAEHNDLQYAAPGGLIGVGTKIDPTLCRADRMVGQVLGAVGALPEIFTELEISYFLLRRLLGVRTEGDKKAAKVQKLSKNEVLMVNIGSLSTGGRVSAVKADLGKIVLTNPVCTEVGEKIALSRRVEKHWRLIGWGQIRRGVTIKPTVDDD
GST-fused human eIF2β (GST-eIF2β) (human), sequence (P20042 whole entry, the tested form may be a part): as the sequence (P20042 whole entry, chain 2 of 3) above

Molecule “human eIF2 purified from HeLa cells (from UniProt P05198 1-315; P20042 1-333; P41091 1-472) (complex)” gave a fold reduction of binding against wild-type GST-5MP1 in experiment [1] greater than 2 fold.

In experiment [2], “FL-5MP1-7A (FLAG-tagged 5MP1 with the AA-box 2 mutation 7A) (from UniProt Q9Y6E2 1-419) (natural protein)” returned a fold reduction of binding against wild-type FL-5MP1 of 2 fold.

B1: GST-5MP1 fusion protein (human eIF5-mimic protein 1) (natural protein, UniProt Q9Y6E2 1-419, looked up)
chain: MNKHQKPVLTGQRFKTRKRDEKEKFEPTVFRDTLVQGLNEAGDDLEAVAKFLDSTGSRLDYRRYADTLFDILVAGSMLAPGGTRIDDGDKTKMTNHCVFSANEDHETIRNYAQVFNKLIRRYKYLEKAFEDEMKKLLLFLKAFSETEQTKLAMLSGILLGNGTLPATILTSLFTDSLVKEGIAASFAVKLFKAWMAEKDANSVTSSLRKANLDKRLLELFPVNRQSVDHFAKYFTDAGLKELSDFLRVQQSLGTRKELQKELQERLSQECPIKEVVLYVKEEMKRNDLPETAVIGLLWTCIMNAVEWNKKEELVAEQALKHLKQYAPLLAVFSSQGQSELILLQKVQEYCYDNIHFMKAFQKIVVLFYKADVLSEEAILKWYKEAHVAKGKSVFLDQMKKFVEWLQNAEEESESEGEEN
Regarding B1, the binding result in experiment [3] is “binds”.

These data come from paper PMC3201852 (Nucleic Acids Research, 2011).
